Measurements reported in the nanobody polyreactivity screen of Harvey et al. (2022).

assay: yeast display, Sf9 membrane polyspecificity reagent, FACS + sequencing; frameworks hold sequencing errors
Procedure, shortened: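 Synthetic nanobody libraries on Saccharomyces cerevisiae BJ5465 were galactose-induced for 36–48 hours, stained 1 hour at 4 °C with 10% biotinylated, detergent-solubilized Sf9 membrane reagent and enriched on streptavidin microbeads. FACS then separated cells into low and high (top ~1%) gates by anti-HA (expression) and streptavidin (reagent binding) fluorescence. Genes were colony-PCR amplified, MiSeq 2 × 250 sequenced and CDR-length filtered. A clone's polyreactivity label is that of its gate of origin.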

Row | Sequence | polyreactivity (PSR sort gate)
1 | QVQLVESGGGLVQAGGSLRLSCAASGNTFGYYAMGWYRQAPGKERELVAAITSSGGRTYYADSVKGRFTISRDNAKNTVYLQMNSLKPEDTAVYYCAAGRVGARYPTYRFYYWGQGTQVTVSS | high polyreactivity
2 | QVQLVESGGGLVQAGGSLRLSCAASGNTFHTYTMGWYRQAPGKERELVAVITRSGGRTYYADSVKGRFTISRDNAKNTVYLQMNSLKPEDTAVYYCAVLGAGQTWLDYWGQGTQVTVSS | high polyreactivity
3 | QVQLVESGGGLVQAGGSLRLSCAASGNTFKVYVMGWYRQAPGKERELVAAISRRGGNTYYADSVKGRFTISRDNAKNTVYLQMNSLKPEDTAVYYCAAYRAPYYEYDYWGQGTQVTVSS | high polyreactivity
4 | QVQLVESGGGLVQAGGSLRLSCAASGNTFKYYAMGWYRQAPGKERELVAAISYSGGSTYYADSVKGRFTISRDNAKNTVYLLMNSLKPEVTAVYYCAADLDSERYYWGQGTQVTVSS | low polyreactivity
5 | QVQLVESGGGLVQAGGSLRLSCAASGNTFLVNAKGWYRQAPGKERELVATIRRGGSTNYADSVKGRFTISRDNAKNTVYLLMNSLKPEDTAVYYCNADRVGYWSSNMDYWGQGTEVTVSS | low polyreactivity
6 | QVQLVESGGGLVQAGGSLRLSCAASGNTFPAYAMGWYRQAPGKERELVATISWSTGSTNYADSVKGRFTISRDIAKNTVYLQMNSLKPEDTAVYYCNKELYDFKDRNLKAFLLRIFDSWGQGTQVTVSS | low polyreactivity
7 | QVQLVESGGGLVQAGGSLRLSCAASGNTFPFNAMGWYRQAPGKERELVAAISRGGSTYYADSVKGRFTISRDNAKNTVYLQMNSLKPEDTAVYYCAVSAGKRRLDYWGQGTQVTVSS | high polyreactivity
8 | QVQLVESGGGLVQAGGSLRLSCAASGNTFPTYAMGWYRQAHGKERELVAAINKRGSNTYYADSVKGRFTISRDNAKNTVYLQMNSLKPEDTADYYARAAGEYDYWGQGTQVTVSS | high polyreactivity
9 | QVQLVESGGGLVQAGGSLRLSCAASGNTFPWYAMGWSRQAPGKERELVAAINSGGRTNYADSVKGRFTISRDNAKNTVYLQMNSLKQEDTAVYYCAAAFDWGLYCFDYWGQGTQVTVSS | high polyreactivity
10 | QVQLVESGGGLVQAGGSLRLSCAASGNTFREYTMGWYRQAPGKERELVAGISGSGGRTYYADSVKGRFTISRDNAKNTVYLQMNSLKPEDTAVYYCYARWYYGIGYNYWGQGTQVTVSS | high polyreactivity
11 | QVQLVESGGGLVQAGGSLRLSCAASGNTFRLYAMGWYRQAPGKERELVATITSGVSTNYADSVKGRFTISRDNAKNTVYLQMNSLKPEDTAVYYCAARHYYTYSSGFGRYIYTEYYWGQGTQVTVSS | low polyreactivity
12 | QVQLVESGGGLVQAGGSLRLSCAASGNTFRRNVMGWYRQAPGKERELVAAINRGGSTTYADSVKGRFTISRDNAKNTVYLQMNSLKAEDTAVYYCNARTLFKWRHGHYYAYDYWGQGTQVTVSS | high polyreactivity
13 | QVQLVESGGGLVQAGGSLRLSCAASGNTFRSYAMGWYRQAPGKERELVAAISGRGGSTYYADSVKGRFTISRDNAKNTVDLQMNSRKPEDTAVYYCAAESRRVNYANDYWGQGTQVTVSS | high polyreactivity
14 | QVQLVESGGGLVQAGGSLRLSCAASGNTFRSYVMGWYRPAPGKARELVADISSGDGTNYADSVKGRFTISRDTAKNTVYLQMNSLKPEDTAVYYCAKDVYNFRSTHSYFTGYVSWGQGTQVTVSW | low polyreactivity
15 | QVQLVESGGGLVQAGGSLRLSCAASGNTFRSYVMGWYRQAPGKERELVAVITKSGGSTYYADSVKGRFTISRDNAKNTVYLQMNSLKPEDTAVYYCAADRPAYGVGYWGQGTQVTVSS | high polyreactivity
16 | QVQLVESGGGLVQAGGSLRLSCAASGNTFRWYDMGGYRQAPGKERELVAAITSSGSTTYYADSVKGRFTISRDNAKNTVYLQMNSLKPEDTAVYYCAAEDHYEGYGGYYWGHGTQVTVSS | low polyreactivity

Row | Sequence | polyreactivity (PSR sort gate)
17 | QVQLVESGGGLVQAGGSLRLSCAASGNTFRYNAMGWYRQAPWKERELVAAISRRGGSTYYADSVKGRFTISRDNAKNTVYLQMNSLKPEDTAVYYCNAGRTAENEYWGQGTQVTVSS | high polyreactivity
18 | QVQLVESGGGLVQAGGSLRLSCAASGNTFRYNTMGWYRQAPGKERELVAVITRRGSSTYYADSVKGRFTISRDNAKNTVYLQMNSLKPEDTAVYYCAAAPYYVTLVTRRDYWGQGTQVTVSS | high polyreactivity
19 | QVQLVESGGGLVQAGGSLRLSCAASGNTFRYYAMGWYRQAPGKERELVAAISRNGGSTYADSVKGRFTISRDNAKNTVYLQMNSLKPEDTAVYYCNAYRIRPGTPYGKGYYYWGQGTQVTVSS | high polyreactivity
20 | QVQLVESGGGLVQAGGSLRLSCAASGNTFSNYAMGWYRQAPGKEREFVAAIRKSGASTYYADSVKGRFTISRDNAKNSVYLQMNSLKPEDTAVYYCAADGQVSFALGFDYWGQGTQVTVSS | high polyreactivity
21 | QVQLVESGGGLVQAGGSLRLSCAASGNTFSPYAMGWYRQAPGKERELVAAITFRGGSTYYADSVKGRFTISRDNAKNTVYLQMNSLKPEDTAVYYCNAERGGWSGYFGYDYWGQGTQVTVSS | low polyreactivity
22 | QVQLVESGGGLVQAGGSLRLSCAASGNTFSSYAMGWYRQAPGKERELVAAISRRGGSTYYADSVKGRFTISRDNAKNTVYLQMNSLKPEDTAVYYCAADGTGFRYLRYDYWGQGTQVTVSS | high polyreactivity
23 | QVQLVESGGGLVQAGGSLRLSCAASGNTFSYYAMGWYRQAPGKERELVAAISWRGGSTYYADSVKGRFTISRDNAKNTVYLQMNSLKPEDTAVYYCAADLYWASLWYVGAAYGYEYWGQGTQVTVSS | low polyreactivity
24 | QVQLVESGGGLVQAGGSLRLSCAASGNTFTAYAMGWYRQAPGKERELVAAISSSGRTNYADSVKGRFTISRDNAKNTVYLQMNSLKPEDTAVYYCAAYRLSKPFYKYDYWGEGTQVTVSS | high polyreactivity
25 | QVQLVESGGGLVQAGGSLRLSCAASGNTFTTYAMGWYRQAPGKERELVAVISRSGGRTYYADSVKGRFTISRDNAKNTVYLQMNSLKPEDTAVYYCATRTYATSEYGYWGQGTQVTVSS | high polyreactivity
26 | QVQLVESGGGLVQAGGSLRLSCAASGNTFTWYTIGWYRQAPGKERELVAVITSDGSTYYADSVKGRFTISRDNAKNTVYLQMNSLKPEDTAVYYCNALSADWYPEVDYWGQGTQVTVSS | low polyreactivity
27 | QVQLVESGGGLVQAGGSLRLSCAASGNTFTWYTMGWYRQAPGKERELVAVITSDGSTYYADSVKGRFTISRDNAKNTVDLQMNSLKPEDTAVYYCNALSADWYPEEDYWGQGTQVTVSS | low polyreactivity
28 | QVQLVESGGGLVQAGGSLRLSCAASGNTFTWYTMGWYRQAPGKERELVAVITSDGSTYYADSVKGRFTISRDNAKNTVYLQMNSLKPEDTAGYYCNALSADWYPEEDFWGQGTQVTVSS | low polyreactivity
29 | QVQLVESGGGLVQAGGSLRLSCAASGNTFTWYTMGWYRQAPGKERELVAVITSDGSTYYADSVKGRFTISRDNAKNTVYLQMNSLKPEDTAVYYCNARYLRLRYPYTDEYNYWGQGTQVTVSS | low polyreactivity
30 | QVQLVESGGGLVQAGGSLRLSCAASGNTFVGYTMGWYRQAPGKEWELVAAISWNGGTTYYADSVKGRFTISRDNAKNTVYLQMNSLKPEDTAVYYCNTRWYTRRFDYWGQGTQVTVSS | high polyreactivity
31 | QVQLVESGGGLVQAGGSLRLSCAASGNTFVSNAMGWYRPAPGKERELVAAINSGGSTNYADSVKGRFTISRDNAKNTVYLQMNSLKPEDTAVYYCNKYYDYPQRYWMDYWGQGTQVTVSS | low polyreactivity
32 | QVQLVESGGGLVQAGGSLRLSCAASGNTFVSNAMGWYRQAPGKERELVAAIDSGGSTNYADSVKGRFTISRDNEKNTVYLQMKSLKPEDTAVYYCNRTSVYYYYWGQGTQVTVSS | low polyreactivity
